Results: publication doi:10.1101/2025.08.03.668247, “The structure of Egalitarian in complex with the K10 mRNA localization signal reveals a modular binding surface required for function”
Where a chain is given by its changes, count along the chain named.

Legend:
Assay in all cases: fluorescence anisotropy; FA: 20 mM HEPES-NaOH pH 7.5, 100 mM NaCl, 10% glycerol, 20 C, 10 nM FAM-RNA; competition: 150 nM Egl512-819 + 10 nM FAM-K10 TLS, same buffer
Details in all cases: protein: recombinant; tags: N-terminal GST; label: 5'-6-FAM; hairpin with two bulges
R785A = target: T1, R785A (Drosophila melanogaster, UniProt Q9W1K4 512-819, R785A)
T1 sequence: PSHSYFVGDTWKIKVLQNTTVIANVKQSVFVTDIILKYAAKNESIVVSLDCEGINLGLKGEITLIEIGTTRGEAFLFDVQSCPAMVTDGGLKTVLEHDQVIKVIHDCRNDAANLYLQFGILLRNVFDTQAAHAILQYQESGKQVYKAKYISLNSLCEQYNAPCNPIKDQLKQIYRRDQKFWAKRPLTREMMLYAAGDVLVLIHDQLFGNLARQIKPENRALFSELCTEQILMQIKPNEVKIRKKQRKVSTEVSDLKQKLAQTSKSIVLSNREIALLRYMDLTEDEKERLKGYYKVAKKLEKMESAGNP

R753A = target: T2, R753A (Drosophila melanogaster, UniProt Q9W1K4 512-819, R753A)
T2 sequence: T1 sequence with R242A, A274R

R788A = target: T3, R788A (Drosophila melanogaster, UniProt Q9W1K4 512-819, R788A)
T3 sequence: T1 sequence with A274R, R277A

K755E = target: T4, K755E (Drosophila melanogaster, UniProt Q9W1K4 512-819, K755E)
T4 sequence: T1 sequence with K244E, A274R

R619E = target: T5, R619E (Drosophila melanogaster, UniProt Q9W1K4 512-819, R619E)
T5 sequence: T1 sequence with R108E, A274R

R785E = target: T6, R785E (Drosophila melanogaster, UniProt Q9W1K4 512-819, R785E)
T6 sequence: T1 sequence with A274E

Binder: CUUGAUUGUAUUUUUAAAUUAAUUCUUAAAAACUACAAAUUAAG (structured_RNA) [K10 TLS (FAM)]
- Kd (R785A): 194 ± 10 nM
- Kd (R753A): 95 ± 5 nM
- Kd (R788A): 207 ± 43 nM
- Kd (K755E): 133 ± 2 nM
- Kd (R619E): 318 ± 15 nM
- Kd (R785E): 210 ± 5 nM
